Here are results for one molecule from paper doi:10.1101/2023.02.03.527063 (bioRxiv, 2023).

In the experiment the target is T1, FLAG-tagged PXR K109A (human, UniProt O75469 1-434, K109A).
T1 sequence (looked up): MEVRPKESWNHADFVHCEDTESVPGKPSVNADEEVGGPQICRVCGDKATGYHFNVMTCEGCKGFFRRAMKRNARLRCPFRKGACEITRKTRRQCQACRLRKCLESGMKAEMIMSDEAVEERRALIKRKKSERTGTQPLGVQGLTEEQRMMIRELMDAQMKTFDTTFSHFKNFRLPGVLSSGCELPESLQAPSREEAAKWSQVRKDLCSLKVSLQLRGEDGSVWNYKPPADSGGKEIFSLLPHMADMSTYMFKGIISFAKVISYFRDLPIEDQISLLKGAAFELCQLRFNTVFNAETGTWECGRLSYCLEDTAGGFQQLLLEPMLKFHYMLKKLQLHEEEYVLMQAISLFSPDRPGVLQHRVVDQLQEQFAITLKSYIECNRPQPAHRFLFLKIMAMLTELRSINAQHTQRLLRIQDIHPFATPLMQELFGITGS
The experiment in a line: co-IP.

B1: His-tagged BRD9 (natural protein, UniProt Q9H8M2 1-597, looked up)
chain: MGKKHKKHKAEWRSSYEDYADKPLEKPLKLVLKVGGSEVTELSGSGHDSSYYDDRSDHERERHKEKKKKKKKKSEKEKHLDDEERRKRKEEKKRKREREHCDTEGEADDFDPGKKVEVEPPPDRPVRACRTQPAENESTPIQQLLEHFLRQLQRKDPHGFFAFPVTDAIAPGYSMIIKHPMDFGTMKDKIVANEYKSVTEFKADFKLMCDNAMTYNRPDTVYYKLAKKILHAGFKMMSKQAALLGNEDTAVEEPVPEVVPVQVETAKKSKKPSREVISCMFEPEGNACSLTDSTAEEHVLALVEHAADEARDRINRFLPGGKMGYLKRNGDGSLLYSVVNTAEPDADEEETHPVDLSSLSSKLLPGFTTLGFKDERRNKVTFLSSATTALSMQNNSVFGDLKSDEMELLYSAYGDETGVQCALSLQEFVKDAGSYSKKVVDDLLDQITGGDHSRTLFQLKQRRNVPMKPPDEAKVGDTLGDSSSSVLEFMSMKSYPDVSVDISMLSSLGKVKKELDPDDSHLNLDETTKLLQDLHEAQAERGGSRPSSNLSSLSNASERDQHHLGSPSRLSVGEQPDVTHDPYEFLQSPEPAASAKT
As for B1, the “interaction relative to that between FLAG-PXR and BRD9-His” value stood at 0.3 fold.
